Source: US12559525B2, “Conjugated fibronectin-binding peptides for use in tumor or fibrosis diagnosis and therapy” (priority 2021, dated 2026)
No end group written: not given here.

Experiments:
[1] = biological target: T1, Fib1 (N-terminal 30 kDa fragment of fibronectin, SEQ ID NO: 14) (Homo sapiens, UniProt P02751); assay: Affinity towards Fib1 by fluorescence polarization; type: binding; details: fluorescence polarization assay (Example 1, FIG. 1)
T1 construct: 6-His (C); made in house
Experimental: FIG. 1: Affinity measurements of Cy5-labelled FnBPA5.1 and FnBPA5 towards the N-terminal 30 kDa fragment of Fibronectin (Fib1) according to SEQ ID NO: 14. Curves display triplicates measurements of fluorescence polarization. Error bars display standard deviations. Analysis was conducted using GraphPad Prism. KD is shown in nM.
Preferably, said affinity is measurable by using a fluorescence anisotropy assay, using a peptide with N-terminally appended Cy5 label (as described in Preparative Example 1). Detailed protocol for the measurement is included in Example 1.
For the affinity measurement experiment, Cy5-FnBPA5.1 (according to SEQ DI NO: 12) and Cy5-FnBPA5 (according to SEQ DI NO: 13) (48 nM) were mixed with different concentrations of Fib 1—N-terminal 30 kDa fragment of fibronectin according to SEQ ID NO: 14 (0 nM-4.5 μM) in PBS pH 7.4. Samples were incubated for 1 h (37° C., 70 rpm) and fluorescence polarization was measured in triplicates using the Pherastar FSX plate reader (BMG Labtech; Optic module: FP 590-50 675-50 675-50). […]

PC-3 tumor = assay: Biodistribution of 111In-labelled peptides in PC-3 xenografts; type: in vivo, CD1 nu/nu mice; details: radioisotope-labelled peptide
Experimental: FIG. 4: Biodistribution of ^111In-labeled NODAGA-FnBPA5 and its engineered version NODAGA-FnBPA5.1 in PC-3 tumor-bearing CD1 nu/nu mice 24 hours after injection. Results are shown as averages of % injected activity per gram±SD (n=4).
(§1) Animal studies were carried out according to the Swiss Animal Protection Law under the license AG75700. For tumor implantation, 5×10^6 PC-3 cells in 100 μL PBS were injected subcutaneously into both shoulders of female CD1 nu/nu mice (Charles River, Germany) under isoflurane/oxygen anesthesia. Tumor growth was inspected regularly and tumors were measured using a caliper. Five weeks after tumor implantation, mice were injected via the tail vein with approximately 100-150 kBq of the corresponding ^111In-labelled radiotracers, previously diluted with PBS to a concentration of 1-1.5 MBq/mL. At 24 h p.i., mice were euthanized using CO2. The organs of interest were harvested, weighed and counted by means of gamma counter together with three standards containing 100 μL of the injection solution. The percentage of injected activity per gram (% IA/g) was calculated based on the average of the standards set at 100%.

67NR breast tumor = assay: Biodistribution of 111In-labelled peptides in 67NR orthotopic and syngeneic breast tumor model; type: in vivo, Balb/c mice; details: radioisotope-labelled peptide, 67NR orthotopic and syngeneic breast tumor mice
Experimental: FIG. 5: Biodistribution of ^111In-labeled NODAGA-FnBPA5 and its engineered version NODAGA-FnBPA5.1 in 67NR tumor-bearing mice 24 hours after injection. Results are shown as averages of % injected activity per gram±SD (n=4).
as §1, with “implantation, 40′000 67NR” for “implantation, 5×10^6 PC-3”, “in 50” for “in 100”, “into the mammary fat pad at the 4th nipple” for “into both shoulders”, “female Balb/c” for “female CD1 nu/nu”, “caliper. Two” for “caliper. Five”

T1 sequence (P02751 32-290): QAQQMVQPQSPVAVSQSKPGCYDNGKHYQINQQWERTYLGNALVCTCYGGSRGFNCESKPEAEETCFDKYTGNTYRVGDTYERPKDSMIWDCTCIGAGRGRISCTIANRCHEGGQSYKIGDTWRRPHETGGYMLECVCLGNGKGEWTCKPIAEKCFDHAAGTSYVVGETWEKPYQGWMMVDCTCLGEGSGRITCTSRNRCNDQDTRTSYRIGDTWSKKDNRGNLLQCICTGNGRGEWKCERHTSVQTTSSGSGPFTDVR

Question: For “Gln-Val-Thr-Thr-Gly-Ser-Asn-Leu-Val-Glu-Phe-Thr-Glu-Glu-Ser-Leu-Gly-Ie-Val-Thr-Gly-Ala-Val-Ser-Asp-His-Thr-Thr-Val-Glu-Asp-Thr (QVTTGSNLVEFTEESLGIVTGAVSDHTTVEDT; not fully specified) [FnBPA5.1]”, which “Affinity for Fib1 compared with FnBPA5” value [1] is on record?
Answer: improved affinity

Question: What about the “Uptake in tumors compared with FnBPA5” value (PC-3 tumor; PC3 xenograft mice) of the same substance?
Answer: improved uptake in tumors

Question: What about the “Uptake in spleen and liver compared with FnBPA5” value (PC-3 tumor; tumor model not given) of the same substance?
Answer: lower uptake in spleen and liver

Question: And the “Uptake in tumors compared with FnBPA5” value (67NR breast tumor)?
Answer: improved uptake in tumors
